From publication PMC9482650, “Quantitative fragmentomics allow affinity mapping of interactomes” (Nature Communications, 2022)

T1: LNX2_2, Q8N448
T1 sequence (Q8N448 334-432, limits assumed, looked up): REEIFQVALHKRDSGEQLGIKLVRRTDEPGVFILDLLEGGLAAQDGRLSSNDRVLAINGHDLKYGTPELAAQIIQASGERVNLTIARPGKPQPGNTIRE

T2: DFNB31_3, Q9P202
T2 sequence (Q9P202 811-907, limits assumed, looked up): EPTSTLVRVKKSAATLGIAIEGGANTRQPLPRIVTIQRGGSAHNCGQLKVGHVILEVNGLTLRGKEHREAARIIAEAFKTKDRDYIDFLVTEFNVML

T3: SNTB1, Q13884
T3 sequence (Q13884 107-205, limits assumed, looked up): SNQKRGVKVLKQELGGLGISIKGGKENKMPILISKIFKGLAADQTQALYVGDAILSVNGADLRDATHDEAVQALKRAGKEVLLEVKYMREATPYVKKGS

T4: DFNB31_2, Q9P202
T4 sequence (Q9P202 274-371, limits assumed, looked up): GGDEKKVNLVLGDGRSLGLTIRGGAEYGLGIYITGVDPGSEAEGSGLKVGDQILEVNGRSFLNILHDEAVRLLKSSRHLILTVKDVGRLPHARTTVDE

T5: TJP3_3, O95049
T5 sequence (O95049 375-456, limits assumed, looked up): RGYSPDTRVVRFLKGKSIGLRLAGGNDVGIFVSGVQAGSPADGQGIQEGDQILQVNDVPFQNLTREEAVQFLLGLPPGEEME

T6: APBA3_1, O96018
T6 sequence (O96018 389-490, limits assumed, looked up): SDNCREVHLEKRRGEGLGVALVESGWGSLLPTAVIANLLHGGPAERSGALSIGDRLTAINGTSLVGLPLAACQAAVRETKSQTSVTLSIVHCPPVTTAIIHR

T7: SNTG1, Q9NSN8
T7 sequence (Q9NSN8 52-150, limits assumed, looked up): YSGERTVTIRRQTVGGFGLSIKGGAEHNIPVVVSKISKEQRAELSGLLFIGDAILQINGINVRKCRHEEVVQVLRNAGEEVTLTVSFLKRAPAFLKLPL

T8: RAPGEF6, Q8TEU7
T8 sequence (Q8TEU7 525-625, limits assumed, looked up): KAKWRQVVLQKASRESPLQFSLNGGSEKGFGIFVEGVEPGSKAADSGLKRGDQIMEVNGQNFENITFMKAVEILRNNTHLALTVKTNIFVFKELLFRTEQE

T9: HTRA3, P83110
T9 sequence (P83110 354-453, limits assumed, looked up): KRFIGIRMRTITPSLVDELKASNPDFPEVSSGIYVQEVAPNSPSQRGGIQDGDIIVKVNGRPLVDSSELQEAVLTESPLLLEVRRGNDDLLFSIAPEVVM

T10: ARHGEF11, O15085
T10 sequence (O15085 42-136, limits assumed, looked up): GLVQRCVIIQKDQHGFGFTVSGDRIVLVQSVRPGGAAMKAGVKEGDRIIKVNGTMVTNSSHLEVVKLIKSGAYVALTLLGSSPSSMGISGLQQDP

T11: MPDZ_12, O75970
T11 sequence (O75970 1857-1958, limits assumed, looked up): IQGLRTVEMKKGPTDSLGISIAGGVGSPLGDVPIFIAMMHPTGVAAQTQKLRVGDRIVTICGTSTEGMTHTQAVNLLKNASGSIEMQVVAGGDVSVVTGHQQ


How the values were obtained:
Assay in all cases: holdup assay
Parameters in all cases: key: below the threshold = too weak to quantify, mostly under pKd 3.1 to 4
Conditions in all cases: plain residues with an end cap or a label only (N-terminal biotin on a linker: ado-ado)
[1] = target: PTPN3, P26045
Chain of PTPN3, P26045 (P26045 505-587): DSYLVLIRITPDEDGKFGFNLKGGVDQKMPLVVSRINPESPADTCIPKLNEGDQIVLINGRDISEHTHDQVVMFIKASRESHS

[2] = target: Inadl_4, Q8NI35
Chain of Inadl_4, Q8NI35 (Q8NI35 547-651): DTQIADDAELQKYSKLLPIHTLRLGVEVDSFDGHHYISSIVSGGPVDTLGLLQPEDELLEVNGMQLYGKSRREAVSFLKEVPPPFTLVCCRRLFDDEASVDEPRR

[3] = target: TJP1_3, Q07157
Chain of TJP1_3, Q07157 (Q07157 416-512): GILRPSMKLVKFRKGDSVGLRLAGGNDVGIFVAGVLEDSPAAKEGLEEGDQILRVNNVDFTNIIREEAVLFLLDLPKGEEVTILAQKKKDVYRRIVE

[4] = target: Inadl_10, Q8NI35
Chain of Inadl_10, Q8NI35 (Q8NI35 1673-1763): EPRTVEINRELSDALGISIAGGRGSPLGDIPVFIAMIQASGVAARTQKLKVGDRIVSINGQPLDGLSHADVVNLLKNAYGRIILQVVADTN

[5] = target: DLG1_2, Q12959
[6] = target: SCRIB_1, Q14160
Chain of SCRIB_1, Q14160 (Q14160 718-814): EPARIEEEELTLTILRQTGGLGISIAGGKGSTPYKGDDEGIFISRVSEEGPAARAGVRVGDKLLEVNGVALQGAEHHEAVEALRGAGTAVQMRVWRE

[7] = target: T1, LNX2_2, Q8N448
[8] = target: T2, DFNB31_3, Q9P202
[9] = target: T3, SNTB1, Q13884
[10] = target: NOS1, P29475
Chain of NOS1, P29475 (P29475 9-101): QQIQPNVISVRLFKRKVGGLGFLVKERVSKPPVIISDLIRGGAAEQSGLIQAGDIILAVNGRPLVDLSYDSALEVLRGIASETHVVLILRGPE

[11] = target: T4, DFNB31_2, Q9P202
[12] = target: T5, TJP3_3, O95049
[13] = target: GIPC2, Q8TF65
Chain of GIPC2, Q8TF65 (Q8TF65 112-203): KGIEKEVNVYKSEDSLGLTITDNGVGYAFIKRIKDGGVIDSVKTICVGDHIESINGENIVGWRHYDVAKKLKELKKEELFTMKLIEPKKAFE

[14] = target: GOPC, Q9HD26
[15] = target: CASK, O14936
Chain of CASK, O14936 (O14936 487-570): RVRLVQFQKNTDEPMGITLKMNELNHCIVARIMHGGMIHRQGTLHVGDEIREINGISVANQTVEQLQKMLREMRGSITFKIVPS

[16] = target: T6, APBA3_1, O96018
[17] = target: IL16_3, Q14005
Chain of IL16_3, Q14005 (Q14005 1107-1207): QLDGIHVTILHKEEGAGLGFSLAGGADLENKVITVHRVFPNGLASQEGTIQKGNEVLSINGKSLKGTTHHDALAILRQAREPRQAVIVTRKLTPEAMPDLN

[18] = target: T7, SNTG1, Q9NSN8
[19] = target: SNX27, Q96L92
[20] = target: PICK1, Q9NRD5
Chain of PICK1, Q9NRD5 (Q9NRD5 17-115): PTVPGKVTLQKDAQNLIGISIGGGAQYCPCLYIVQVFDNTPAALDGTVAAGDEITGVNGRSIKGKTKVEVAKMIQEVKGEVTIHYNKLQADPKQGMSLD

[21] = target: T8, RAPGEF6, Q8TEU7
[22] = target: DLG1_1, Q12959
[23] = target: T9, HTRA3, P83110
[24] = target: T10, ARHGEF11, O15085
[25] = target: T11, MPDZ_12, O75970
[26] = target: NHERF4_2, Q86UT5
Chain of NHERF4_2, Q86UT5 (Q86UT5 220-308): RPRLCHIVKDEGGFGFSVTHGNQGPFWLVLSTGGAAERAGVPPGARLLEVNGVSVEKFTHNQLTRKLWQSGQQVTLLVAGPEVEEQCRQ

[27] = target: MAGI2_6, Q86UL8
Chain of MAGI2_6, Q86UL8 (Q86UL8 1141-1229): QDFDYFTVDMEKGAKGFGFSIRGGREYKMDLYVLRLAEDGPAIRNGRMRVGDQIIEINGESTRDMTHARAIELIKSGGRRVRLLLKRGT

Row | Binder | pKd [1] | pKd [2] | pKd [3] | pKd [4] | pKd [5] | pKd [6] | pKd [7] | pKd [8] | pKd [9] | pKd [10] | pKd [11] | pKd [12] | pKd [13] | pKd [14] | pKd [15] | pKd [16] | pKd [17] | pKd [18] | pKd [19] | pKd [20] | also measured
1 | SQPLLVHDDV [KIT, P10721] | below the threshold | below the threshold | below the threshold | below the threshold | below the threshold | below the threshold | below the threshold | below the threshold | below the threshold | below the threshold | below the threshold | below the threshold | below the threshold | below the threshold | below the threshold | below the threshold | below the threshold | below the threshold | below the threshold | 4.06 | pKd [21]: below the threshold; pKd [22]: below the threshold; pKd [23]: below the threshold; pKd [24]: below the threshold; pKd [25]: below the threshold; pKd [26]: below the threshold; pKd [27]: below the threshold
2 | EFKQTSSFLV [JAM1, Q9Y624] | below the threshold | below the threshold | below the threshold | below the threshold | below the threshold | below the threshold | 5.22 | 3.93 | below the threshold | 3.97 | below the threshold | below the threshold | below the threshold | below the threshold | below the threshold | below the threshold | below the threshold | below the threshold | below the threshold | 4.27 | pKd [21]: below the threshold; pKd [22]: below the threshold; pKd [23]: 4.16; pKd [24]: below the threshold; pKd [25]: below the threshold; pKd [26]: below the threshold; pKd [27]: below the threshold
3 | DFKHTKSFII [JAM2, P57087] | 3.81 | below the threshold | below the threshold | below the threshold | 3.81 | below the threshold | 4.7 | 3.71 | below the threshold | 3.75 | below the threshold | below the threshold | below the threshold | below the threshold | below the threshold | below the threshold | below the threshold | below the threshold | below the threshold | below the threshold | pKd [21]: below the threshold; pKd [22]: below the threshold; pKd [23]: 4.1; pKd [24]: below the threshold; pKd [25]: below the threshold; pKd [26]: below the threshold; pKd [27]: below the threshold
4 | GNDPDRGTSI [GRID2, O43424] | 4.52 | below the threshold | below the threshold | below the threshold | below the threshold | below the threshold | below the threshold | below the threshold | below the threshold | 3.75 | below the threshold | below the threshold | below the threshold | below the threshold | below the threshold | below the threshold | below the threshold | below the threshold | below the threshold | below the threshold | pKd [21]: below the threshold; pKd [22]: below the threshold; pKd [23]: below the threshold; pKd [24]: below the threshold; pKd [25]: below the threshold; pKd [26]: below the threshold; pKd [27]: 3.58
5 | SGDGKTSVWI [GJC1, P36383] | 4.06 | below the threshold | 4.11 | 3.54 | below the threshold | 3.94 | 5.42 | below the threshold | below the threshold | 4.1 | below the threshold | 4.44 | below the threshold | below the threshold | below the threshold | below the threshold | below the threshold | 3.61 | 3.56 | below the threshold | pKd [21]: below the threshold; pKd [22]: below the threshold; pKd [23]: 5.8; pKd [24]: 3.61; pKd [25]: 4.1; pKd [26]: below the threshold; pKd [27]: 3.73
